Laboratory results taken from patent US20210214414A1 (Pfizer, published 2021).

Assays:
[1] = biological target: T1, Mouse SLIT3-N (mouse, UniProt Q9WVB4 34-1119, limits assumed); experiment: HTRF competition: d2-labelled mouse SLIT3-N binding to human ROBO2 on HEK293 cells; geometric mean, n=3
T1 construct: domain: SLIT3-N; d2-labelled in the HTRF assay
T1 sequence (looked up): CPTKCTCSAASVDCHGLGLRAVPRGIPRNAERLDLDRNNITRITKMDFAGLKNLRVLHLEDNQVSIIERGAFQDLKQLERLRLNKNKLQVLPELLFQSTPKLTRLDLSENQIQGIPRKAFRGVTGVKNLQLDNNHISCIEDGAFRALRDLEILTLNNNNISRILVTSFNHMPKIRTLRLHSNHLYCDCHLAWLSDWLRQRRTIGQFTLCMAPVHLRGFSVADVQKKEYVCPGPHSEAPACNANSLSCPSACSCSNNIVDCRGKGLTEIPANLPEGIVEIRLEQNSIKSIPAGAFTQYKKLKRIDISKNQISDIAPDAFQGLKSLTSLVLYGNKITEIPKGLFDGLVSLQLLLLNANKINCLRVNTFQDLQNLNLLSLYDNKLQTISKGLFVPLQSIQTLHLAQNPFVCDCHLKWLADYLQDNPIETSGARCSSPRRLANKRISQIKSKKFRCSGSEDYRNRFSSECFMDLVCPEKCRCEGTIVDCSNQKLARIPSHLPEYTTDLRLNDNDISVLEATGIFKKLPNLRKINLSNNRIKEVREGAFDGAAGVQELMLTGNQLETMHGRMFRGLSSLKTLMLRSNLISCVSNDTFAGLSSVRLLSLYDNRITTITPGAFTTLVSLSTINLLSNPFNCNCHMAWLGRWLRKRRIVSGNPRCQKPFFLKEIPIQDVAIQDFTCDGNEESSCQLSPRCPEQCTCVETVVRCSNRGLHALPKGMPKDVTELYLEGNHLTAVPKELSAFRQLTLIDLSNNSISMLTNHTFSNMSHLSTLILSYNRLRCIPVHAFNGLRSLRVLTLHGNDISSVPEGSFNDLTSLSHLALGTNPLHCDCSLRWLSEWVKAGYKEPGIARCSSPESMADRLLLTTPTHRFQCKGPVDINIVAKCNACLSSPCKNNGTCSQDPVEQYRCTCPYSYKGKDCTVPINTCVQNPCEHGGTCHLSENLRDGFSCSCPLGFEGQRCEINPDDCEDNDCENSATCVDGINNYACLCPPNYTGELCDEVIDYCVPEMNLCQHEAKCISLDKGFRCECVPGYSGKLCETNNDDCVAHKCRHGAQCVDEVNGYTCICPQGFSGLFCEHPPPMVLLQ
Description: After incubation, fluorescence at 665 nm and 620 nm was measured on an Envision multilabel plate reader. The HTRF Ratio was calculated as follows: fluorescence at 665 nm/fluorescence at 620 nm×10,000. […] The IC₅₀ for each SLITx-N was determined using an 11-point, 4-fold dilution series with a top concentration of 4000 nM.

[2] = biological target: T2, Rat SLIT2-N (rat, UniProt Q9WVC1 31-766, limits assumed); experiment: SPR, ROBO2-Fc 2.2 captured by anti-human Fc on a C1 chip, rat SLIT2-N as analyte, 1:1 model
T2 construct: domain: SLIT2-N (N terminal fragment)
T2 sequence (looked up): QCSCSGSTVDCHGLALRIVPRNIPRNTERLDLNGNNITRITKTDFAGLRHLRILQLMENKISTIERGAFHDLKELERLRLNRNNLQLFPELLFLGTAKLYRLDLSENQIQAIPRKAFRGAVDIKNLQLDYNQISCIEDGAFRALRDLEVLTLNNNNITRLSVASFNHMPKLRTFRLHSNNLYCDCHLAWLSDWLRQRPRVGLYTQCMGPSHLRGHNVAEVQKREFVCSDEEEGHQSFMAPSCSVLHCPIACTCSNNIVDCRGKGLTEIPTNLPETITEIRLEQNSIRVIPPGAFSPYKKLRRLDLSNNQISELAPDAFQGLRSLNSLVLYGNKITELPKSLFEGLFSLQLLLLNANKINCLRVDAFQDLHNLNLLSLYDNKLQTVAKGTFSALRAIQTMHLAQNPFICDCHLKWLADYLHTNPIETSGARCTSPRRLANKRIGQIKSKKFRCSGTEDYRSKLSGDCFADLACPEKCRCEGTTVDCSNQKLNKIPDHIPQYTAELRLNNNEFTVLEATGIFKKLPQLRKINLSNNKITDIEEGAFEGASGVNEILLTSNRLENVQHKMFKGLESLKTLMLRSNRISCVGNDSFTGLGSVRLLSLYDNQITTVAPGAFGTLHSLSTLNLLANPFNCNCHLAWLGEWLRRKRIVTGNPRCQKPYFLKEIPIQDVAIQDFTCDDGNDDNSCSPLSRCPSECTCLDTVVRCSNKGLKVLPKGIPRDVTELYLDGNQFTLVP
Description: HBS-EP was used as a diluent. […] An 8 point 2-fold dilution series was performed on the SLIT2 ligands, ranging from 2 nM to 15.6 pM using HBS-EPB as the diluent. […] Association of the indicated SLIT2 ligand was followed for 120 s and dissociation monitored for 180 s. The apparent binding affinity was determined using a simple 1:1 interaction model of the kinetic rate constants.

B1: ROBO2-Fc 2.2 (Fc fusion)
chain: SRLRQEDFPPRIVEHPSDVIVSKGEPTTLNCKAEGRPTPTIEWYKDGERVETDKDDPRSHRMLLPSGSLFFLRIVHGRRSKPDEGSYVCVARNYLGEAVSRNASLEVALLRDDFRQNPTDVVVAAGEPAILECQPPRGHPEPTIYWKKDKVRIDDKEERISIRGGKLMISNTRKSDAGMYTCVGTNMVGERDSDPAELTVFERGGSGGSEPKSSDKTHTCPPCPAPEAAGAPSVFLFPPKPKDTLMISRTPEVTCVVVDVSHEDPEVKFNWYVDGVEVHNAKTKPREEQYNSTYRVVSVLTVLHQDWLNGKEYKCKVSNKALPAPIEKTISKAKGQPREPQVYTLPPSREEMTKNQVSLTCLVKGFYPSDIAVEWESNGQPENNYKTTPPVLDSDGSFFLYSKLTVDKSRWQQGNVFSCSVMHEALHNHYTQKSLSLSPG
notes: Labelled with Alexa Fluor 647 in the flow cytometry assay; also called ROBO-Fc 2.2; ROBO2-Fc 2.2-AF647
- IC50 [1]: 4.3 nM
- Kd [2]: 0.543 nM
